Laboratory results published in patent US8426166B2, “Long-acting polypeptides and methods of producing same” (Prolor Biotech Inc., dated 2013).

T1: human IFN receptor (human, UniProt P17181)
T1 sequence 1: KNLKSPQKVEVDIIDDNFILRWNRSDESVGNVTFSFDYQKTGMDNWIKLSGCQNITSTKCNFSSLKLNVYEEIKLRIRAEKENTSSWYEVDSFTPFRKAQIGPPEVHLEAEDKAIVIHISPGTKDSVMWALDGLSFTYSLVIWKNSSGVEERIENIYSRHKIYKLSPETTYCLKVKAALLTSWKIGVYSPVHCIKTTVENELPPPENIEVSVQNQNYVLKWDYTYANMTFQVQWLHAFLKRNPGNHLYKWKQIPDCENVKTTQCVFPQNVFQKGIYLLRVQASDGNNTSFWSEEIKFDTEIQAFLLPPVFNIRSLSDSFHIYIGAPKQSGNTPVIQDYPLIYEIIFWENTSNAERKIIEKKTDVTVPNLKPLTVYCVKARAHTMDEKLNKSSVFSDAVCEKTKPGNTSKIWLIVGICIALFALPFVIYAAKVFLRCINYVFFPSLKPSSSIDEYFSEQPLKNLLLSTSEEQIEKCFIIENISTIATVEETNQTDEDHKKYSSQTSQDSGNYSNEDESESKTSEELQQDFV
T1 sequence 2: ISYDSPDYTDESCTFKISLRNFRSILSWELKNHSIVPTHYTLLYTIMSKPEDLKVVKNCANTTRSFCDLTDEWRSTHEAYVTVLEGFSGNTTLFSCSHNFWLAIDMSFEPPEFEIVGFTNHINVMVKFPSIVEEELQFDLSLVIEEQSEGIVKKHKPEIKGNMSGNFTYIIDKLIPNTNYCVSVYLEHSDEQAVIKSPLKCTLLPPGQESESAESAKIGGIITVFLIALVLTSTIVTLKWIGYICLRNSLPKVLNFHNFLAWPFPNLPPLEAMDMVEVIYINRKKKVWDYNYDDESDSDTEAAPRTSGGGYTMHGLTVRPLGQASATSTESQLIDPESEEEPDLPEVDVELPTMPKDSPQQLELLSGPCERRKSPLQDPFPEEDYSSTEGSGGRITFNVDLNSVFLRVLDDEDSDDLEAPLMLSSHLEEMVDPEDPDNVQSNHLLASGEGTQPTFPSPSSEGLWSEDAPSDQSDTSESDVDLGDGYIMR

B1: MOD-9016 (ctp-IFNβ-ctp) (ligand)
chain: SSSSKAPPPSLPSPSRLPGPSDTPILPQMSYNLLGFLQRSSNFQCQKLLWQLNGRLEYCLKDRMNFDIPEEIKQLQQFQKEDAALTIYEMLQNIFAIFRQDSSSTGWNETIVENLLANVYHQINHLKTVLEEKLEKEDFTRGKLMSSLHLKRYYGRILHYLKAKEYSHCAWTIVRVEILRNFYFINRLTGYLRNSSSSKAPPPSLPSPSRLPGPSDTPILPQ
B2: Intl. Standard (IFN-β reference standard calibrated in International Units, National Institute of Allergy and Infectious Diseases (NIH)) (ligand)
chain: MSYNLLGFLQRSSNFQCQKLLWQLNGRLEYCLKDRMNFDIPEEIKQLQQFQKEDAALTIYEMLQNIFAIFRQDSSSTGWNETIVENLLANVYHQINHLKTVLEEKLEKEDFTRGKLMSSLHLKRYYGRILHYLKAKEYSHCAWTIVRVEILRNFYFINRLTGYLRN
B3: Human Interferon-β 1a-MOD-9010 (ligand)
chain: MSYNLLGFLQRSSNFQCQKLLWQLNGRLEYCLKDRMNFDIPEEIKQLQQFQKEDAALTIYEMLQNIFAIFRQDSSSTGWNETIVENLLANVYHQINHLKTVLEEKLEKEDFTRGKLMSSLHLKRYYGRILHYLKAKEYSHCAWTIVRVEILRNFYFINRLTGYLRN
B4: MOD-9012 (IFNβ-ctpx2) (ligand)
chain: MSYNLLGFLQRSSNFQCQKLLWQLNGRLEYCLKDRMNFDIPEEIKQLQQFQKEDAALTIYEMLQNIFAIFRQDSSSTGWNETIVENLLANVYHQINHLKTVLEEKLEKEDFTRGKLMSSLHLKRYYGRILHYLKAKEYSHCAWTIVRVEILRNFYFINRLTGYLRNSSSSKAPPPSLPSPSRLPGPSDTPILPQSSSSKAPPPSLPSPSRLPGPSDTPILPQ
B5: MOD-9011 (IFNβ-ctp) (ligand)
chain: MSYNLLGFLQRSSNFQCQKLLWQLNGRLEYCLKDRMNFDIPEEIKQLQQFQKEDAALTIYEMLQNIFAIFRQDSSSTGWNETIVENLLANVYHQINHLKTVLEEKLEKEDFTRGKLMSSLHLKRYYGRILHYLKAKEYSHCAWTIVRVEILRNFYFINRLTGYLRNSSSSKAPPPSLPSPSRLPGPSDTPILPQ

Biological target: T1, human IFN receptor
Test: cell-based or functional assay

Binder	IC50 pg/ml (anti-proliferation, Daudi cells)	Specific Activity IU/mg x 10^8, Anti-proliferation (Daudi cells, 72 hours, viable cells)	Specific Activity IU/mg x 10^8, Anti-viral (viral cytopathic effect bioassay, A549 cells challenged with virus)
B1	323 pg/mL	1.97e+08 IU/mg	3.7e+08 IU/mg
B2	318 pg/mL		
B3	251 pg/mL		3.9e+08 IU/mg
B4			4e+08 IU/mg
B5	264 pg/mL	2.41e+08 IU/mg	4e+08 IU/mg
